The values that follow come from ChEMBL document CHEMBL4033784, “Discovery of 1,5-Diphenylpyrazole-3-Carboxamide Derivatives as Potent, Reversible, and Selective Monoacylglycerol Lipase (MAGL) Inhibitors” (J Med Chem, 2018).

Substrate in this data set: Cc1cccc(Cn2nc(C(=O)N3CCC(Cc4ccccc4)CC3)cc2-c2ccc(O)cc2)c1
Particulars: Homo sapiens.

Description: Competitive inhibition of recombinant human MAGL assessed as substrate Km using 4-NPA as substrate after 30 mins by Michaelis-Menten plot analysis

B1: Monoglyceride lipase (Homo sapiens), Q99685 (protein)
chain: MPEESSPRRTPQSIPYQDLPHLVNADGQYLFCRYWKPTGTPKALIFVSHGAGEHSGRYEELARMLMGLDLLVFAHDHVGHGQSEGERMVVSDFHVFVRDVLQHVDSMQKDYPGLPVFLLGHSMGGAIAILTAAERPGHFAGMVLISPLVLANPESATTFKVLAAKVLNLVLPNLSLGPIDSSVLSRNKTEVDIYNSDPLICRAGLKVCFGIQLLNAVSRVERALPKLTVPFLLLQGSADRLCDSKGAYLLMELAKSQDKTLKIYEGAYHVLHKELPEVTNSVFHEINMWVSQRTATAGTASPP
As to B1, the Km amounted to 210 µM.

For orientation: Km means the substrate concentration at which the rate is half of its maximum.
